This is an account of results in publication PMC12637205, “A natural allele of the transcription factor gene TaMYB-D7b is a genetic signature for phosphorus deficiency in wheat”.

This data set deals with TaMYB-D7b (2174 allele, Gly-50) (Triticum aestivum cv. 2174, UniProt A0A410P7J2). Nature of the data set: EMSA; EMSA: 100 fmol biotin probe, 1 ug protein, 20 uL, 1x binding buffer, 2.5% glycerol, 5 mM MgCl2, 1 ug poly(dI-dC), room temperature 30 min; pH and salt not given. The note with it: protein: recombinant; tags: His (pET32a vector); label: 5'-biotin. On the technique in general: A gel shift assay detects complexes by their altered migration in electrophoresis.
Chain of TaMYB-D7b (2174 allele, Gly-50) (A0A410P7J2 entry or part of it): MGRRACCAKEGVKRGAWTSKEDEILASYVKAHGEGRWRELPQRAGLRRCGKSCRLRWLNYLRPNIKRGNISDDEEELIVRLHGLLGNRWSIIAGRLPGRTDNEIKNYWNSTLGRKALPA

B1: TaCHSL-A2 promoter probe (27 bp) (dsDNA)
DNA 1: TGCAAAGAAAACCAACCAACACTTACC
DNA 2: GGTAAGTGTTGGTTGGTTTTCTTTGCA
Turning to B1, the binding result is listed as “binds”.
